Assay results taken from the supplement of paper PMC9170038.

System: MS2 coat protein
Assay: apparent KD of MS2 coat protein; designed switch direction (-1 OFF switch, 1 ON switch): -1; higher = weaker reporter binding
Procedure, shortened: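 Designed RNA switches with common flanks were made on Illumina chips by stalled E. coli RNA polymerase. Titration with SNAP-549-labelled MS2 coat protein doubled from 0.7 or 1.5 nM up to 3 µM. Apparent KD is each design's median over clusters after curve-fitting normalised fluorescence.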

[1] = Eterna round: R95, input ligand: microRNA oligo, concentration not stated
[2] = input ligand: microRNA oligo, concentration not stated
[3] = Eterna round: R95, input ligand: FMN 200 uM
[4] = Eterna round: R95, input ligand: none

Sequence: UAUGUGUCAGGAUAUUAAUUAUAACAGAAUUUAACAAUGAUUAAGAAGGGACAUGAGGAUCACCCAUGUUCAUC [JR_Ex4_Sub024] (Eterna round: R97, puzzle: Exclusion 4)
- apparent KD of MS2 coat protein (input ligand: FMN 200 uM): 0.0227 µM
- apparent KD of MS2 coat protein (input ligand: none): 0.0204 µM

Sequence: CUAAUACAUCAGGAUAUGUGUCAUUAUAGCGACACAGAAGGGAUGACAUGAGGAUCACCCAUGUCAAAGGGUGA [eternacac ex6r4 sub22] (Eterna round: R97, puzzle: Exclusion 6)
- apparent KD of MS2 coat protein (input ligand: FMN 200 uM): 0.0854 µM
- apparent KD of MS2 coat protein (input ligand: none): 0.639 µM

Sequence: GCGUACUGAGGAUAUACAUGAGGAUCACCCAUGUAACACAGCAUAUGUGAAGUUUUUUGUAGAAGGCAGUAUGC [JR_Ex3_Sub056] (Eterna round: R97, puzzle: Exclusion 3)
- apparent KD of MS2 coat protein (input ligand: FMN 200 uM): 0.18 µM
- apparent KD of MS2 coat protein (input ligand: none): 0.0287 µM

Sequence: CUGAUGUUAGGAUAUCAGGCGCCCGCCACUAGCAAGGCGCAUGAGAAGGGACAUGAGGAUCACCCAUGUAGUAA [Xexeonza] (puzzle: Exclusion 4)
- apparent KD of MS2 coat protein [1]: 0.0277 µM

Sequence: CUGGUCUAUGUAGGAUAUGGUGUAUAUGUAUUACCAGAAGGACAUGAGGAUCACCCAUGUGUCGUGGUAUGAGUAGGUGAUGUU [Random] (Eterna round: R96, puzzle: Exclusion NG 1)
- apparent KD of MS2 coat protein [2]: 0.0402 µM

Sequence: AUUAAAACAUAGGAUAUCGAAAUUAUUAUUUAACGAGAAGGAUGAACAUGAGGAUCACCCAUGUGGUAUCAUGG [Mat - Exclusion 6 - JL Mod - D28] (puzzle: Exclusion 6)
- apparent KD of MS2 coat protein [3]: 0.307 µM
- apparent KD of MS2 coat protein [1]: 0.367 µM
- apparent KD of MS2 coat protein [4]: 0.61 µM

Sequence: CUGUGUAGACAGGAUAUGCUGUACAAAAGUACAGCAGAAGGGUCUACAUGAGGAUCACCCAUGUUUACUUCAUG [)mei Ex6 B23] (Eterna round: R97, puzzle: Exclusion 6)
- apparent KD of MS2 coat protein (input ligand: FMN 200 uM): 0.0204 µM
- apparent KD of MS2 coat protein (input ligand: none): 0.0984 µM

Sequence: GGUUUGGGAGGAUAUGGUUUGAAUAACAUGAGGAUCACCCAUGUAAAUAGAUCUUCCGGGCCAGAAGGCUCGGGCC [-23.9, -21.52 kcal, A 26%] (Eterna round: R97, puzzle: Exclusion 5)
- apparent KD of MS2 coat protein (input ligand: FMN 200 uM): 0.0295 µM
- apparent KD of MS2 coat protein (input ligand: none): 0.0346 µM

Sequence: GUAGAUCGAGUUAGGAUAUGAUUAAAAUCCGGAUAUCAGAAGGAACUUGAGGAUCACCCAAGUAUAGAUGAUUU [JR_BMEx4_Sub055] (Eterna round: R97, puzzle: Brourd's mod of Exclusion 4)
- apparent KD of MS2 coat protein (input ligand: FMN 200 uM): 0.104 µM
- apparent KD of MS2 coat protein (input ligand: none): 0.0232 µM

Sequence: GUCGUGCAGCUUUGCUGUACGAGUACAUGAGGAUCACCCAUGUAGGAUAUGGUACGCUUUGCGUGCCAGAAGGGCGUGCGUUGG [salish99_ExNG3_r04_005] (Eterna round: R96, puzzle: Exclusion NG 3)
- apparent KD of MS2 coat protein (input ligand: FMN 200 uM): 0.0302 µM
- apparent KD of MS2 coat protein [2]: 0.024 µM
- apparent KD of MS2 coat protein (input ligand: none): 0.0346 µM

Sequence: GUAGAGUAAGGAUAUGUAGAAUAGGAUAGAAUGGUUAGAAUACAGAAGGUACAUGAGGAUCACCCAUGUAAUGU [Excluse me!!!! 3 - Jieux - Exclusion 4] (puzzle: Exclusion 4)
- apparent KD of MS2 coat protein [1]: 0.017 µM

Sequence: UACAUGAGGAUCACCCAUGUUUUGUCGUGUAUGGUAUUUAUCUAGGAUAUCAAUUUAAUUAUUUAUGAGAAGGAGAAUAUUAAU [JMF's solution 17] (Eterna round: R96, puzzle: Exclusion NG 3)
- apparent KD of MS2 coat protein [2]: 0.0298 µM

Sequence: GCCGGUGUUGCGGAUAAGCUUUUCUGCUCGUUUUAUCGCACAUGAGGAUCACCCAUGUCAUCCGUCAGCAUGCAAAC [Aredardi] (puzzle: Sensor v3, turn-off variant 2)
- apparent KD of MS2 coat protein [3]: 0.026 µM
- apparent KD of MS2 coat protein [1]: 0.0407 µM
- apparent KD of MS2 coat protein [4]: 0.0256 µM

Sequence: UAGUGACAUGAGGAUCACCCAUGUGAGGAUAUAGUGAGAGAAAAAAGGAGAGAGAGGACUAGAAGGCACAGUGA [JR_Exclu1_Sub032] (puzzle: Exclusion 1)
- apparent KD of MS2 coat protein [3]: 0.0766 µM
- apparent KD of MS2 coat protein [1]: 0.0524 µM
- apparent KD of MS2 coat protein [4]: 0.0927 µM

Sequence: UUUUAGCAAGCGAGAAUUAACAUGAGGAUCACCCAUGUGCAUCCAGAAUUACUUUUAGAACAAGCUCGUCUUAUAUA [JR_STOV1_v2_Sub081] (Eterna round: R97, puzzle: Sensor, turn-off variant 1)
- apparent KD of MS2 coat protein (input ligand: FMN 200 uM): 0.353 µM
- apparent KD of MS2 coat protein (input ligand: none): 0.401 µM

Sequence: CUGUACUGAGGAUAUACAUGAGGAUCACCCAUGUUCUUCGGCUAGGAAACUAGCAAAGGUAGAAGGCAGUACAG [Mat - Exclusion 3 - Eli Mod - D68] (Eterna round: R97, puzzle: Exclusion 3)
- apparent KD of MS2 coat protein (input ligand: FMN 200 uM): 0.234 µM
- apparent KD of MS2 coat protein (input ligand: none): 0.0151 µM

Sequence: GAAUAGGCAGGAUAUACAUGAGGAUCACCCAUGUGCUUGCGAUAGGCACGUGAACAACGUAGAAGGGCCUUAAC [ChP 13.04.2015 #12] (puzzle: Exclusion 3)
- apparent KD of MS2 coat protein [1]: 0.0283 µM

Sequence: UUAUUAUAUGUAGGAUAUGCGUAUUAUUGUUAUGCAGAAGGACAUGAGGAUCACCCAUGUAUAUUAUUGUUAUAUAUUGUAUAU [Title] (Eterna round: R96, puzzle: Exclusion NG 1)
- apparent KD of MS2 coat protein (input ligand: FMN 200 uM): 0.0289 µM
- apparent KD of MS2 coat protein [2]: 0.0198 µM
- apparent KD of MS2 coat protein (input ligand: none): 0.0217 µM

Sequence: GUGAGGGAGUGAGGAUAUCAGGGAGGUGGGAAAUGAGAAGGUACAUGAGGAUCACCCAUGUAAGAGUAGGGAAGAGAGAAGAGU [Default title] (Eterna round: R96, puzzle: Exclusion NG 1)
- apparent KD of MS2 coat protein (input ligand: FMN 200 uM): 0.0787 µM
- apparent KD of MS2 coat protein [2]: 0.109 µM
- apparent KD of MS2 coat protein (input ligand: none): 0.0838 µM

Sequence: GAUUAACAUGAGGAUCACCCAUGUGAGGAUAUUGACUUGCUCACUUUCCCAUUAGAGUCGAGAAGGCGCAUCUU [1986#18] (Eterna round: R97, puzzle: Exclusion 1)
- apparent KD of MS2 coat protein (input ligand: FMN 200 uM): 0.0252 µM
- apparent KD of MS2 coat protein (input ligand: none): 0.0286 µM

Sequence: GUUAUUUAUGUAGGAUAUGCAAGGCGAACCUAAGCAGAAGGACAUGAGGAUCACCCAUGUAUUGCGGUCUGCGUUCAGAUCGCU [salish99_ExNG1_r4_013] (Eterna round: R96, puzzle: Exclusion NG 1)
- apparent KD of MS2 coat protein (input ligand: FMN 200 uM): 0.0862 µM
- apparent KD of MS2 coat protein [2]: 0.015 µM
- apparent KD of MS2 coat protein (input ligand: none): 0.022 µM

Sequence: GCGGACAAGAUCGUGAGAUCAGAGACAUGAGGAUCACCCAUGUAGGAUAUCGAUUCGAAACGAAUCGAGAAGGGCAUAGUCCGC [JL denovo 6] (Eterna round: R96, puzzle: Exclusion NG 3)
- apparent KD of MS2 coat protein (input ligand: FMN 200 uM): 0.0205 µM
- apparent KD of MS2 coat protein [2]: 0.0149 µM
- apparent KD of MS2 coat protein (input ligand: none): 0.0198 µM

Sequence: CCAUGGGAGCGAGGAUAUAGCCCAUGGGAAGAACUAGAAGGCGCAGACAUGAGGAUCACCCAUGUGUUCAUGAGGAGGUGGACA (Eterna round: R96, puzzle: Exclusion NG 1)
- apparent KD of MS2 coat protein (input ligand: FMN 200 uM): 0.153 µM
- apparent KD of MS2 coat protein [2]: 0.0826 µM
- apparent KD of MS2 coat protein (input ligand: none): 0.121 µM

Sequence: AAAUAGCUUGAGGAUAUUGGAUAGGAUUUAGUGCGAGAAGGCAAGACAUGAGGAUCACCCAUGUUGUGUUGGGA [EX6 #13] (Eterna round: R97, puzzle: Exclusion 6)
- apparent KD of MS2 coat protein (input ligand: FMN 200 uM): 0.0484 µM
- apparent KD of MS2 coat protein (input ligand: none): 0.0364 µM

Sequence: UAUAUAUAGUAAGGAUAUGUAAUUAUUUUAGAAACAGAAGGUACUGACAUGAGGAUCACCCAUGUUUUAGUGUGGGCAUGUAGA [JMF's solution 45] (Eterna round: R96, puzzle: Exclusion NG 1)
- apparent KD of MS2 coat protein [2]: 0.0699 µM

Sequence: UUUACAAGCUAUUGAUCCCACAUGAGGAUCACCCAUGUUGCUGCCGUGAGGUAGCUUUUAACAAUUGCUCGUCUUAU [JL TOV1 3.38] (Eterna round: R97, puzzle: Sensor, turn-off variant 1)
- apparent KD of MS2 coat protein (input ligand: FMN 200 uM): 0.424 µM
- apparent KD of MS2 coat protein (input ligand: none): 0.57 µM

Sequence: UUUUUACAUGAGGAUCACCCAUGUCAGGAUAUGUUUAUAUUUUAUUAUUUUAUUUUUUACAGAAGGGACUAUUA [My solution] (puzzle: Exclusion 1)
- apparent KD of MS2 coat protein [1]: 0.123 µM

Sequence: ACAUAUGACUAGGAUAUCACUAGCGAUAGCUAGUGAGAAGGAGUCACAUGAGGAUCACCCAUGUGCUCCAAUAA [Mod5 Ex6/6-A4 by Brourd] (Eterna round: R97, puzzle: Exclusion 6)
- apparent KD of MS2 coat protein (input ligand: FMN 200 uM): 0.0163 µM
- apparent KD of MS2 coat protein (input ligand: none): 0.0151 µM

Sequence: AUCAGCUCGUGAGGAUAUACAUGCGUGCUUCGGCACGAAUUUAAGAUCACAUGAGGAUCACCCAUGUAGAAGGUACGAGCUGAU [ENG2/3-C3] (Eterna round: R96, puzzle: Exclusion NG 2)
- apparent KD of MS2 coat protein (input ligand: FMN 200 uM): 0.498 µM
- apparent KD of MS2 coat protein [2]: 0.287 µM
- apparent KD of MS2 coat protein (input ligand: none): 0.275 µM

Sequence: GUAAACGCAGAGGAUAUAUCAGAUCAAAGCUGCAUAGAAGGCUGCACAUGAGGAUCACCCAUGUGGUCUUCAAG [Mat - Exclusion 6 - JL Mod - D7] (Eterna round: R97, puzzle: Exclusion 6)
- apparent KD of MS2 coat protein (input ligand: FMN 200 uM): 0.23 µM
- apparent KD of MS2 coat protein (input ligand: none): 0.0312 µM

Sequence: AACCAGCGAGGAUAUGCUUGAGCUUGUUCUGGUUAUAAUCGACUUGAGGAUCACCCAAGUAGAAGGUGCUGACG [EX2 #58] (Eterna round: R97, puzzle: Exclusion 2)
- apparent KD of MS2 coat protein (input ligand: FMN 200 uM): 0.0256 µM
- apparent KD of MS2 coat protein (input ligand: none): 0.0269 µM

Sequence: CCUCUACAUGAGGAUCACCCAUGUGAGGAUAUCUCGGAGCAGCCUAUUAAGGCGCUCCAGAGAAGGCACGUGUA [Dizasoorce] (puzzle: Exclusion 1)
- apparent KD of MS2 coat protein [1]: 0.0179 µM

Sequence: AGUAGUAGUAUCCGAUCCUACAUGAGGAUCACCCAUGUAGCUAGACGUGCACGCGAUGCUCGUCAGACUGCCAGAUG [salish99_TOv1_r3_049] (puzzle: Sensor v3, turn-off variant 1)
- apparent KD of MS2 coat protein [3]: 0.0954 µM
- apparent KD of MS2 coat protein [1]: 0.0978 µM
- apparent KD of MS2 coat protein [4]: 0.128 µM

Sequence: GCGUACUGAGGAUAUACAUGAGGAUCACCCAUGUGAAGAAGAAAGUAGUGAUGGUUAAGUAGAAGGCAGUAUGC [JR_Ex3_Sub063] (Eterna round: R97, puzzle: Exclusion 3)
- apparent KD of MS2 coat protein (input ligand: FMN 200 uM): 0.411 µM
- apparent KD of MS2 coat protein (input ligand: none): 0.113 µM

Sequence: CUGGUGUGAGGAUAUCAGGGCACGCCCAAGGGCGUACCAAAUGAGAAGGCACAUGAGGAUCACCCAUGUGGGAC [Lasoena] (puzzle: Exclusion 4)
- apparent KD of MS2 coat protein [1]: 0.032 µM
